Laboratory results reported in the supplement of paper PMC10724198.
± gives the standard deviation of the averaged measurements.

Key:
Saccharomyces cerevisiae [1] = assay: protein stability index of tFT-peptide fusion (C-terminal peptide) (PSI (0-1 scale)); higher = more stable (slower turnover)
Method: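 MPS profiling in S. cerevisiae of the tFT-X12 degron library: putative degron peptides plus stable controls, 12 aa, fused to the C-terminus of a sfGFP-mCherry timer. Cells are FACS-sorted into 8 mCherry/sfGFP bins and deep-sequenced. PSI runs from 0 (unstable) to 1 (stable). Backgrounds are wild type, das1Δ and doa10Δ at 30 °C, and wild type, das1Δ, cdc34-1 and cdc53-1 at 37 °C; 2-3 technical replicates each.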

Saccharomyces cerevisiae [2] = assay: as above; conditions: genetic background: wild type; temperature: 30 C
[3] = genetic background: cdc34-1, temperature: 37 C
[4] = genetic background: cdc53-1, temperature: 37 C
[5] = genetic background: das1 deletion, temperature: 30 C
[6] = genetic background: das1 deletion, temperature: 37 C
[7] = genetic background: doa10 deletion, temperature: 30 C
[8] = genetic background: wild type, temperature: 30 C
[9] = genetic background: wild type, temperature: 37 C
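Further: PSI is a weighted mean of sequencing reads over stability bins, variants kept only with over 10 reads, mCherry proximal and sfGFP distal, peptide attached via GGGS linker.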

Sequence	protein stability index (Saccharomyces cerevisiae [1]; [3])	protein stability index (Saccharomyces cerevisiae [1]; [4])	protein stability index (Saccharomyces cerevisiae [1]; [5])	protein stability index (Saccharomyces cerevisiae [1]; [6])	protein stability index (Saccharomyces cerevisiae [1]; [7])	protein stability index (Saccharomyces cerevisiae [1]; [8])	protein stability index (Saccharomyces cerevisiae [1]; [9])	protein stability index (Saccharomyces cerevisiae [2])
AGGVNWWSSWRV	0.739 ± 0.049	0.767 ± 0.0082	0.648 ± 0.015	0.775 ± 0.011	0.6591 ± 0.0032	0.669 ± 0.014	0.78 ± 0.037	0.7454 ± 0.006
GKWFSWNAIWIR	0.0949 ± 0.11	0.0354 ± 0.0075	0.101 ± 0.025	0.1 ± 0.02	0.6114 ± 0.0025	0.0762 ± 0.029	0.101 ± 0.046	0.145 ± 0.049
LFVMVSVSGLVV	0.0501 ± 0.016	0.0999 ± 0.071	0.159 ± 0.031	0.255 ± 0.0059	0.145 ± 0.0021	0.16 ± 0.026	0.235 ± 0.0073	0.261 ± 0.017
TPPLPTTPTLNS	0.641 ± 0.022	0.713 ± 0.022	0.718 ± 0.027	0.703 ± 0.021	0.722 ± 0.025	0.71 ± 0.011	0.684 ± 0.021	0.732 ± 0.025
FLSFARSSCLWF	0.678 ± 0.028	0.7423 ± 0.0011	0.657 ± 0.015	0.739 ± 0.014	0.676 ± 0.03	0.666 ± 0.0085	0.7115 ± 0.00098	0.748 ± 0.016
RNKIWCTVIMRL	0.51 ± 0.042	0.537 ± 0.0088	0.453 ± 0.036	0.597 ± 0.02	0.229 ± 0.01	0.234 ± 0.046	0.396 ± 0.02	0.4002 ± 0.0026
NYVFALFYMVVA	0.196 ± 0.022	0.311 ± 0.031	0.224 ± 0.033	0.3449 ± 0.0014	0.19 ± 0.0089	0.217 ± 0.025	0.345 ± 0.03	0.254 ± 0.0054
VYRILFWFLCFG	0.489 ± 0.023	0.406 ± 0.072	0.422 ± 0.026	0.564 ± 0.043	0.4545 ± 0.0021	0.412 ± 0.01	0.529 ± 0.045	0.4679 ± 0.0011
FVCLCGFLQVLS	0.517 ± 0.018	0.564 ± 0.038	0.395 ± 0.036	0.632 ± 0.04	0.3687 ± 0.0013	0.411 ± 0.028	0.526 ± 0.028	0.489 ± 0.0078
WWDCAVWVRCGG	0.477 ± 0.026	0.471 ± 0.0077	0.382 ± 0.024	0.5379 ± 0.0022	0.407 ± 0.013	0.382 ± 0.019	0.516 ± 0.012	0.471 ± 0.015
RVHFLIVFLCRF	0.441 ± 0.012	0.4927 ± 0.0037	0.369 ± 0.011	0.526 ± 0.012	0.398 ± 0.024	0.361 ± 0.014	0.472 ± 0.021	0.399 ± 0.051
FECLLFVNLLVI	0.274 ± 0.0029	0.345 ± 0.014	0.24 ± 0.042	0.425 ± 0.018	0.153 ± 0.014	0.188 ± 0.03	0.349 ± 0.012	0.288 ± 0.02
ILCVEFFVSVSV	0.0684 ± 0.008	0.2486 ± 0.0024	0.163 ± 0.025	0.277 ± 0.0064	0.136 ± 0.01	0.16 ± 0.0059	0.23 ± 0.021	0.218 ± 0.0027
CVILVSFFCYSA	0.142 ± 0.021	0.221 ± 0.014	0.142 ± 0.059	0.322 ± 0.0071	0.119 ± 0.0041	0.132 ± 0.059	0.284 ± 0.0073	0.2201 ± 0.00089
VGGGCVVVVRWG	0.589 ± 0.044	0.615 ± 0.02	0.485 ± 0.019	0.619 ± 0.009	0.477 ± 0.022	0.475 ± 0.012	0.594 ± 0.0083	0.52 ± 0.035
VHTAIFTSWRRL	0.696 ± 0.048	0.738 ± 0.018	0.631 ± 0.04	0.7721 ± 0.001	0.481 ± 0.018	0.494 ± 0.017	0.685 ± 0.02	0.491 ± 0.028
FVYFLLVVCFAF	0.1671 ± 0.0012	0.242 ± 0.014	0.184 ± 0.028	0.274 ± 0.0017	0.157 ± 0.0085	0.166 ± 0.021	0.249 ± 0.017	0.208 ± 0.011
DLFVFFVFHFFL	0.425 ± 0.032	0.532 ± 0.029	0.372 ± 0.041	0.589 ± 0.013	0.377 ± 0.015	0.38 ± 0.033	0.5686 ± 0.0029	0.457 ± 0.026
LYLFKVLFFRVF	0.122 ± 0.047	0.173 ± 0.026	0.286 ± 0.045	0.458 ± 0.06	0.0857 ± 0.0067	0.0584 ± 0.016	0.102 ± 0.015	0.104 ± 0.048
